Data as given in publication PMC11494503 (2024).

Target: T1, cyclo-CLLFCL (head-to-tail cyclic peptide)
T1 chain: CLLFCL
Assay: microscale thermophoresis

B1: HIF-1α PAS-B (protein)
chain: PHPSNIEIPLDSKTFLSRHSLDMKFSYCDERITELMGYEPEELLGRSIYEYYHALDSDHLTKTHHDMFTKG
Kd: 470 nM
